Here are results for 32 molecules from patent US20070116702A1, “Survival promoting NCAM binding and MCAM ligand binding compounds” (priority 2001, published 2007).

No end group written: not given here.

The subject of data set [1] is Hippocampal cells. Put plainly: Aggregate cell cultures of hippocampal cells (aggregates counted after 24 h). It is filed as cell-based, rat. Particulars: ligand present during the aggregation of cells; quantified 24 h after seeding. How it is done: A variety of suitable fragments and variants of NCAM has been discussed above. To be able to identify candidate ligands capable of stimulating NCAM function, where the NCAM function means the function of the NCAM molecule, the inventors have established a simple cell culture system (aggregate cell cultures) that permits a quantitative evaluation of the effect of various ligands. Hippocampal cells are provided from rat embryos. The cells are grown in a defined medium and dissociated cells are seeded in microtiter plates. After 24 h, the, amount of aggregates are counted. Compounds to be tested are added to the cell suspension immediately before seeding of the cells in micro-wells. When NCAM Ig1 binding ligands are present during the aggregation of cells, smaller, but more numerous cell aggregates are seen when quantified 24 h after seeding of the cells. The inhibiting effect of the ligands results in a blockage of the formation of large aggregates from many small aggregates as the adhesion, properties of NCAM are blocked. Thus, small but more numerous cell aggregates are seen in the presence of active ligands.

For data set [2], the target named is T1, recombinant NCAM Ig1 domain produced in Pichia pastoris (Ig1 PP) (rat, UniProt P13596 20-116, limits assumed).
T1 construct: domain: Ig1; unlabelled analyte in the BIAlite experiment; also called NCAM Ig1-PP
Put plainly: one-bead one-peptide library stained with biotinylated NCAM Ig1. Here is the method:
The synthesis of the resin-bound one-bead one-peptide library was performed using the portioning, mix procedure (Furka et al., 1991). Polyethylene syringes served as reaction vessels throughout the synthesis and the final TFA-deprotection. TentaGel resin (Rapp Polymere, Tübingen, Germany) was divided into 18 aliquots and the protein L-amino acids except cysteine and histidine were used. Side-chains were protected with the following protecting groups: Asp(tBu), Glu(tBu), Tyr(tBu), Ser(tBu), Thr(tBu), Asn(trt), Gln(trt), Lys(Boc), Trp(Boc), Arg(pmc). Fmoc-protected amino acids (5 eq; Milligen or Novabiochem) were coupled overnight using 5eq DIC and 5eq HOBt. Removal of the Fmoc group was accomplished with 25% piperidine in DMF for 20 min. The side chain protecting groups were removed with […], 5% anisole, 5% H₂O, 5% EDT, 2.5% thioanisole at mom temperature for 2.5 h followed by washing with tetrahydrofuran and 1% HOAc and the resin was subsequently lyophilised. Screenings were done by incubating 2 ml resin (equivalent to ca. 10⁶ beads) with biotinylated receptor in Tris/HCl buffer (Tris/HCl 0.025 M, pH 7.2, 0.25 M NaCl, 0.1 % (w/v) Tween 20) containing 0.1% Gelatin (Sigma) for 60 min. Subsequently the resin was washed in Tris/HCl buffer and incubated with avidin-alkaline phosphatase (diluted 1:20000) for 30 min. The substrates BCIP/NBT (Sigma) were added as described by Lam et al. (1992) and stained beads were removed for micro sequencing. The library was screened with the receptor NCAM Ig1-PP (10 mg/ml).

Data set [3] addresses T1, recombinant NCAM Ig1 domain produced in …. Put plainly: SPR (BIAlite), dendrimer peptide immobilised on CM5 chip, Ig1 in solution. Here is the method: Real-time biomolecular interaction analysis was performed using a BIAlite instrument (Pharmacia Biosensor AB, Sweden). All experiments were performed at 25° C. using Hepes buffered saline (HBS: 10 mM Hepes pH 7.4, 150 mM NaCl, 3.4 mM EDTA, 0.005% v/v Surfactant P20 (Pharmacia Biosensor, Sweden) as running buffer. The flow rate was […]. Dendrimer peptides C3d, D3d and D4d (four peptide-monomers coupled to a backbone consisting of three lysines) were immobilised on a sensor chip CM5 (Pharmacia Biosensor AB, Sweden) using the following procedure: the chip was activated by […] 0.05 M N-hydroxysuccinimide, 0.2 M N-ethyl-N′-(dimethylaminopropyl)carbodiimide; peptides were immobilised using […] peptide solution in HBS at a concentration of 60 μg/ml; finally the chip was blocked by 35 μl 1 M ethanolamine hydrochloride pH 8.5. Binding of Ig1 to dendrimer peptides: […] of Ig1 or Ig1I at the indicated concentrations were applied. The chip was regenerated by two […] pulses of 5 mM NaOH. Two independent experiments were performed. The results confirmed that C3d, D3d and D4d bind to the NCAM Ig1 domain.

Data set [4] deals with the molecule itself. Put plainly: gel filtration chromatography, homophilic dimer formation. For orientation: Size exclusion chromatography separates by hydrodynamic size, large species first.

Turning to “AKKERQRKDTQ (listed as Homo sapiens) [D3]”, the “inhibition of aggregation of hippocampal cells” value (“inhibition” below) in data set [1] is given as “inhibited aggregation”.
As to “ARALNWGAKPK (listed as Homo sapiens) [D4]”, the “inhibition” value in data set [1] is “inhibited aggregation”.
“GEISVGESKFFL (listed as Homo sapiens) [Ig1-p]”: the “inhibition” value in data set [1] was “inhibited aggregation”.
For the molecule “GRILARGEINFK (listed as Homo sapiens) [Ig2-p]”, the “inhibition” value in data set [1] is “inhibited aggregation”.
With AQMGRQSIDRN [SEQ ID NO 18], in data set [2], the binding result was “binds”.
On to ATNKKTGRRPR [SEQ ID NO 9], for which the binding result in data set [2] is given as “binds”.
Consider ARKSRDMTAIK [SEQ ID NO 22], for which the binding result in data set [2] is listed as “binds”.

B1: D4d, tetrameric dendrimer of the D4 peptide (peptide)
peptide: ARALNWGAKPK
modifications: also: tetrameric dendrimer: four monomers coupled to a backbone of three lysines, synthesised on Rink amide linker
notes: Immobilised on a CM5 sensor chip in the BIAlite experiment; also called dendrimer peptide D4d
Regarding B1, in data set [3], the binding result is “binds”.
Consider AEGGKKKKMRA [SEQ ID NO 19], for which the binding result in data set [2] is on record as “binds”.
AYYLIVRVNRI [SEQ ID NO 8]: in data set [2], the binding result was “binds”.
ARALNWGAKPK [D4 peptide (SEQ ID NO:3)]: the binding result in data set [2] is listed as “binds”.
Take ASTKRSMQGI [SEQ ID NO 6]: the binding result in data set [2] is “binds”.
AKKERQRKDTQ [D3 peptide (SEQ ID NO:2)]: the binding result in data set [2] is on record as “binds”.

B2: NCAM(20-208) first mutant: Glu-30, Glu-35 and Lys-37 substituted with Ala (receptor, UniProt P13596 20-208, looked up)
chain: LQVDIVPSQGAISVGASAFFLCQVAGDAKDKDISWFSPNGEKLSPNQQRISVVWNDDDSSTLTIYNANIDDAGIYKCVVTAEDGTQSEATVNVKIFQKLMFKNAPTPQEFKEGEDAVIVCDVVSSLPPTIIWKHKGRDVILKKDVRFIVLSNNYLQIRGIKKTDEGTYRCEGRILARGEINFKDIQVIV
With B2, the binding result in data set [4] is on record as “no binding”.

B3: NCAM(20-208) third mutant: Glu-30, Glu-35, Lys-37, Arg-192, Arg-196 and Glu-198 substituted with Ala (receptor, UniProt P13596 20-208, looked up)
chain: LQVDIVPSQGAISVGASAFFLCQVAGDAKDKDISWFSPNGEKLSPNQQRISVVWNDDDSSTLTIYNANIDDAGIYKCVVTAEDGTQSEATVNVKIFQKLMFKNAPTPQEFKEGEDAVIVCDVVSSLPPTIIWKHKGRDVILKKDVRFIVLSNNYLQIRGIKKTDEGTYRCEGAILAAGAINFKDIQVIV
For B3, the binding result in data set [4] is “no binding”.

B4: NCAM(20-208) second mutant: Arg-192, Arg-196 and Glu-198 substituted with Ala (receptor, UniProt P13596 20-208, looked up)
chain: LQVDIVPSQGEISVGESKFFLCQVAGDAKDKDISWFSPNGEKLSPNQQRISVVWNDDDSSTLTIYNANIDDAGIYKCVVTAEDGTQSEATVNVKIFQKLMFKNAPTPQEFKEGEDAVIVCDVVSSLPPTIIWKHKGRDVILKKDVRFIVLSNNYLQIRGIKKTDEGTYRCEGAILAAGAINFKDIQVIV
Regarding B4, the binding result in data set [4] is “no binding”.

B5: C3d, tetrameric dendrimer of the C3 peptide (peptide)
peptide: ASKKPKRNIKA
modifications: also: tetrameric dendrimer: four monomers coupled to a backbone of three lysines, synthesised on Rink amide linker
notes: Immobilised on a CM5 sensor chip in the BIAlite experiment; also called dendrimer peptide C3d
In the case of B5, the binding result in data set [3] is “binds”.
Consider AKKKEQKQRNA [SEQ ID NO 20], for which the binding result in data set [2] is listed as “binds”.
Consider AKSRKGNSSLM [SEQ ID NO 21], for which the binding result in data set [2] is listed as “binds”.
The same measure, in the same setting: as for AGDYNPDLDR [SEQ ID NO 13], the entry is “binds”.
Consider ARKTRERKSKD [SEQ ID NO 14], for which the binding result in data set [2] is “binds”.
For AKKEKPNKPND [SEQ ID NO 17], the binding result in data set [2] is “binds”.
For the molecule ASKKPKRNIKA [C3 peptide (SEQ ID NO:1)], in data set [2], the binding result is “binds”.
Regarding APKLDRMLTKK [SEQ ID NO 16], the binding result in data set [2] is given as “binds”.

B6: Ig1: Recombinant Ig1 domain of rat NCAM produced in Pichia pastoris (protein)
chain: LQVDIVPSQGEISVGESKFFLCQVAGDAKDKDISWFSPNGEKLSPNQQRISVVWNDDDSSTLTIYNANIDDAGIYKCVVTAEDGTQSEATVNVKIFQ
On to B6, for which, in data set [1], the “inhibition” value is recorded as “inhibited aggregation”.
For the molecule AKRNGPLINRI [SEQ ID NO 10], in data set [2], the binding result is reported as “binds”.
Turning to ASQAKRRKGPR [SEQ ID NO 15], the binding result in data set [2] is given as “binds”.
For the molecule ARQKTMKPRRS [SEQ ID NO 12], the binding result in data set [2] is given as “binds”.
Take AKRSVQKLDGQ [SEQ ID NO 11]: the binding result in data set [2] is on record as “binds”.
Regarding AGSAVKLKKKA [SEQ ID NO 4], in data set [2], the binding result was “binds”.
The same measure, in the same setting: as for AKYVLIPIRIS [SEQ ID NO 5], the entry is “binds”.

B7: D3d, tetrameric dendrimer of the D3 peptide (peptide)
peptide: AKKERQRKDTQ
modifications: also: tetrameric dendrimer: four monomers coupled to a backbone of three lysines, synthesised on Rink amide linker
notes: Immobilised on a CM5 sensor chip in the BIAlite experiment; also called dendrimer peptide D3d
In the case of B7, the binding result in data set [3] is recorded as “binds”.
